{"source": "patent US20240032514A1", "about": "(RENGENE BIOTECHNOLOGY, published 2024)", "binders": {"B1": {"name": "D4-12 heavy chain antibody variable region (VHH)", "VHH": "EVQLQQSGPELVKPGASVKISCKASGYMFSDYYMNWVKQSHGKSLEWIGNVDPNTDNTIYNQNFKDKATLTVDRSSRTAYMELHSLTSEDSAVYYCARSRFYDPWFAYWGQGTLVTVSA"}, "B2": {"name": "D5S-12 heavy chain antibody (VHH)", "VHH": "EVKLLESGGGLVKPGGSLKLSCAASGFTFSDYGMSWIRQTPDKRLEWVATISSGNTYTYYSKSVKGRFTISRDNAKNTLYLQMSSLKSEDTAIYYCSRHTSDYYPLSQGTLVTVSA"}, "B3": {"name": "G3-35 (VHH)", "VHH": "EVQLQQSGPELVKPGASVRMSCKASGYTFTDYNIHWVKQSHGESLEWIGFVNPDNGDTYYYKNFKGKATLTFNRSSSTAYMDLRSLTSEDSAVYYCARGTTVEKDYWGQGTTLTVSS"}, "B4": {"name": "G3-23 (VHH)", "VHH": "B3 VHH with L11V, V12L, A16T, H41R, N55T, T112I"}, "B5": {"name": "G3-71 (VHH)", "VHH": "B3 VHH with V51I, K65R, F72L, R74K, A92G, T112I"}}, "key": {"[1]": {"target": "T1, human C-reactive protein (human, UniProt P02741 19-224)", "T1 construct": "also called CRP; antigen CRP", "T1 sequence (looked up)": "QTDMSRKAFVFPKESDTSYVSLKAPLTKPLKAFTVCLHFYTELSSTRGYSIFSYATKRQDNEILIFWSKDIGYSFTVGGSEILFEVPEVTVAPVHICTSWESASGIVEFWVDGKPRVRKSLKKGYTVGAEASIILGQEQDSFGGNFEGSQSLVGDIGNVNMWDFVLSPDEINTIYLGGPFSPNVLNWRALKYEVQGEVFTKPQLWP", "test": "ELISA, CRP coated at 2 µg/mL"}, "[2]": {"target": "T1, human C-reactive protein", "test": "BLI (FORTEBIO-OCTET), antibody at 10 µg/mL, CRP at 200-3.13 nM"}, "[3]": {"target": "T2, OVA (UniProt P01012 2-386)", "T2 construct": "Control protein coated at 2 µg/mL; also called unrelated protein OVA", "T2 sequence (looked up)": "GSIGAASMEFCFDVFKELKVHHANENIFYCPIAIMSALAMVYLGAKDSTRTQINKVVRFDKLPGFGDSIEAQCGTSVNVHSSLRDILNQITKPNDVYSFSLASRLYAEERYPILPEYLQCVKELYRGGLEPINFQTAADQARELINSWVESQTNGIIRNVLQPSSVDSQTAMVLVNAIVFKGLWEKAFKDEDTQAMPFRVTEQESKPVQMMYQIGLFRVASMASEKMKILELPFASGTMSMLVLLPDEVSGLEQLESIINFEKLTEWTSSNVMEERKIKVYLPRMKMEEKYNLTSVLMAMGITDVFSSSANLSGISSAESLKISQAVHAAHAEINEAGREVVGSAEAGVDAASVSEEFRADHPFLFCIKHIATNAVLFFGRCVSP", "test": "ELISA, protein coated at 2 µg/mL, antibody in gradient dilution"}, "[4]": {"target": "T3, BSA (UniProt P02769 25-607)", "T3 construct": "Control protein coated at 2 µg/mL; also called unrelated protein BSA", "T3 sequence (P02769 25-607 limits assumed)": "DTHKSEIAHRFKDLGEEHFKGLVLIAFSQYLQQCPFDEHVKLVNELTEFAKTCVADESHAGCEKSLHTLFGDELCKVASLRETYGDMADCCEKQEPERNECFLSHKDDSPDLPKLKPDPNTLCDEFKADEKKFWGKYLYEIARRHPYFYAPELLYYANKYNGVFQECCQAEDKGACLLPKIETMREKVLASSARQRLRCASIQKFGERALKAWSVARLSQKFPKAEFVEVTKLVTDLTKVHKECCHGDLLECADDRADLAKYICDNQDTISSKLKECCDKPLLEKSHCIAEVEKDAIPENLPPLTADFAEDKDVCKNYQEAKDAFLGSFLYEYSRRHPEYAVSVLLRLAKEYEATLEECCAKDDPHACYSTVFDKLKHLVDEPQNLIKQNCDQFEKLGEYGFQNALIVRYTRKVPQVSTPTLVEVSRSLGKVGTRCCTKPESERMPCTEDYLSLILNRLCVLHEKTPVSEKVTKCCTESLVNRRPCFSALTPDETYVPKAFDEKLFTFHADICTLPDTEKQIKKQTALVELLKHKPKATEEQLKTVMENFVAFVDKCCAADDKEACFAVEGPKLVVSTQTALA", "test": "ELISA, protein coated at 2 µg/mL, antibody in gradient dilution"}, "[5]": {"target": "T1, human C-reactive protein"}}, "note": "Numbering of substitutions follows the chain as printed. Numbers in names are those of the source. Read-outs that look alike come from different tables or passages of the source.", "data": [{"binder": "B1", "values": [{"measurement": "binding result", "setting": "[1]", "result": "binds"}]}, {"binder": "B2", "values": [{"measurement": "Kd", "setting": "[2]", "result": 0.987, "unit": "nM"}, {"measurement": "koff", "setting": "[2]", "result": "8.44e-05", "unit": "s⁻¹"}, {"measurement": "kon", "setting": "[2]", "result": 85500, "unit": "M⁻¹ s⁻¹"}, {"measurement": "binding result", "setting": "[3]", "result": "no binding"}, {"measurement": "binding result", "setting": "[4]", "result": "no binding"}]}, {"binder": "B3", "values": [{"measurement": "binding result", "setting": "[5]", "result": "binds"}]}, {"binder": "B4", "values": [{"measurement": "binding result", "setting": "[5]", "result": "binds"}]}, {"binder": "B5", "values": [{"measurement": "binding result", "setting": "[5]", "result": "binds"}]}]}
